Source: PMC11960969, “Mdga2 deficiency leads to an aberrant activation of BDNF/TrkB signaling that underlies autism-relevant synaptic and behavioral changes in mice” (PLOS Biology, 2025)

Tests used:
TrkB [1] = experiment: BDNF-induced TrkB tyrosine phosphorylation in primary hippocampal neurons (IP anti-TrkB, immunoblot pTyr); assay type: cell-based, mouse; conditions: primary hippocampal neurons DIV 7, 30 min; Mdga2+/- and Mdga2-/- vs WT neurons; Fig 3A, S3A
Description: Fig 3 MDGA2 interacts with TrkB and suppresses TrkB activity. (A) Primary hippocampal neurons derived from Mdga2^ +/− (Het) mice and their wild-type (WT) littermates at DIV 7 were treated with different doses of BDNF for 30 min. Equal amounts of protein lysates were subjected to immunoprecipitation (IP) with an anti-TrkB antibody, followed by immunoblotting with an anti-phosphotyrosine (pTyr) antibody or the anti-TrkB antibody. The pTyr levels were quantified by densitometry, normalized to total TrkB levels, and then compared to those of WT controls. n = 3 per group. (B) WT mouse brain lysates were subjected to IP with an anti-MDGA2 antibody and a control IgG, and immunoblotted (IB) for the components indicated. mBDNF, mature BDNF; ImBDNF, immature BDNF. […] Immunoprecipitated TrkB levels were quantified by densitometry, normalized to input levels, and compared to respective controls (set to one arbitrary units). n = 3 per group. […] Levels of phosphorylated proteins were quantified by densitometry, normalized to respective total protein levels and compared to controls (set to one arbitrary units). n = 6 per group. […] P-values were determined by two-tailed unpaired Student t-test in (A) and one-way ANOVA with Tukey’s multiple comparisons test in (H, I, J). *p < 0.05, **p < 0.01, ***p < 0.001, ns: not significant. […]

ASD animal models = conditions: cited from earlier work
TrkB [2] = experiment: Co-IP of MDGA2, V930I or ΔMAM with TrkB in mouse primary neurons; assay type: binding; conditions: n = 4, Fig 7E
Description: (§1) Fig 7 The autism spectrum disorder (ASD)-associated MDGA2 V930I mutation impairs the MDGA2-TrkB interaction and MDGA2’s inhibitory effect on the tyrosine kinase B (TrkB) signaling. (A) Schematic depiction of the WT human MDGA2 and its V930I mutation constructs that are tagged with GFP. (B, C) HeLa cells (B) and mouse primary neurons (C) transfected with MDGA2 (green) or V930I (green) were immunostained with an antibody against the plasma membrane protein ATP1A1 (red) and then observed by confocal microscopy. Scale bars = 10 μm. (D) Cell surface expression of WT MDGA2 or V930I in transfected HeLa cells was determined by surface biotinylation assays. Biotinylated (cell surface) protein levels were quantified by densitometry and normalized to total protein levels for comparison (WT MDGA2 levels were set to one arbitrary unit). n = 4 experimental replicates. (E) Mouse primary neurons were transfected with MDGA2, V930I, or ΔMAM. […] Immunoprecipitated protein levels were quantified by densitometry, normalized to respective inputs, and compared to those transfected with MDGA2 (set to one arbitrary units). n = 4 experimental replicates. […] Levels of phosphorylated proteins were quantified by densitometry, normalized to respective total protein levels and compared to controls (set to one arbitrary units). n = 6 experimental replicates. […]

HeLa cells = experiment: Cell surface biotinylation of MDGA2 or V930I in transfected HeLa cells; assay type: cell-based; conditions: n = 4, Fig 7D
Description: as §1

[3] = tested on: TrkB signaling (pTrkB, pAkt, pmTOR); experiment: Immunoblotting of TrkB/Akt/mTOR phosphorylation in primary neurons transfected with MDGA2, ΔMAM or V930I; assay type: cell-based, mouse; conditions: Mdga2-/- neurons, n = 6, Fig 7F
Description: Fig 3 MDGA2 interacts with TrkB and suppresses TrkB activity. (A) Primary hippocampal neurons derived from Mdga2^ +/− (Het) mice and their wild-type (WT) littermates at DIV 7 were treated with different doses of BDNF for 30 min. Equal amounts of protein lysates were subjected to immunoprecipitation (IP) with an anti-TrkB antibody, followed by immunoblotting with an anti-phosphotyrosine (pTyr) antibody or the anti-TrkB antibody. The pTyr levels were quantified by densitometry, normalized to total TrkB levels, and then compared to those of WT controls. n = 3 per group. (B) WT mouse brain lysates were subjected to IP with an anti-MDGA2 antibody and a control IgG, and immunoblotted (IB) for the components indicated. mBDNF, mature BDNF; ImBDNF, immature BDNF. (C) Hippocampal neurons from WT mice at DIV 7 were immunostained with antibodies against MDGA2 (red) and TrkB (green), and then counter-stained with DAPI (blue). Images were acquired by a confocal microscope. Scale bar: 10 μm. (D) Surface plasmon resonance (SPR) analysis of the binding between recombinant MDGA2 protein and recombinant TrkB protein. TrkB was immobilized on a Biacore CM5 chip and tested for its binding with MDGA2 at the concentrations indicated. (E) Computer simulation of the binding mode of TrkB and MDGA2. The predicted binding domain of TrkB (the d5 domain) is highlighted by a red square and labeled in brown. The predicted binding domain of MDGA2 (the MAM domain) is highlighted by a red square and labeled in yellow. (F) HEK293T cells were co-transfected with TrkB-Flag and GFP-tagged full-length MDGA2 (MDGA2-GFP) or an MDGA2 deletion fragment lacking the entire MAM domain (ΔMAM-GFP). Cell lysates were subjected to IP with control IgG and antibodies against Flag or GFP, and immunoblotted for the components indicated. […] The scheme of MDGA2-ΔMAM is also shown. (G) HeLa cells were co-transfected with TrkB that is tagged with the N-terminal Venus fragment (TrkB-VN) and full-length MDGA2 or MDGA2-ΔMAM that are tagged with the C-terminal Venus fragment (MDGA2-VC or ΔMAM-VC) for 24 h. After immunostaining with antibodies against MDGA2/MDGA2-ΔMAM (pink) and TrkB (red), cells were observed by confocal microscopy. Venus signal (green) indicates the interaction between MDGA2 and TrkB. Schematic diagrams depicting the BiFC assay are also shown. Scale bars: 10 μm. (H, I) Equal amounts of protein lysates from primary neurons derived from Het, KO, and their WT littermate mice (H), and from WT primary neurons transfected with GFP control, MDGA2-GFP or ΔMAM-GFP (I) were subjected to IP with IgG and an anti-BDNF antibody, and then immunoblotted for the components indicated. Immunoprecipitated TrkB levels were quantified by densitometry, normalized to input levels, and compared to respective controls (set to one arbitrary units). n = 3 per group. (J) Neurons derived from KO mice were transfected with GFP control (Ctrl), MDGA2-GFP, or MDGA2-ΔMAM-GFP, and neurons derived from their WT littermates were transfected with GFP control (Ctrl). Equal amounts of protein lysates were subjected to immunoblotting for the proteins indicated. Levels of phosphorylated proteins were quantified by densitometry, normalized to respective total protein levels and compared to controls (set to one arbitrary units). n = 6 per group. Data represent mean ± SEM. P-values were determined by two-tailed unpaired Student t-test in (A) and one-way ANOVA with Tukey’s multiple comparisons test in (H, I, J). *p < 0.05, **p < 0.01, ***p < 0.001, ns: not significant. The data underlying this figure can be found in S1 Data, specifically in the sheet labeled “Figure 3”.
Fig 7 The autism spectrum disorder (ASD)-associated MDGA2 V930I mutation impairs the MDGA2-TrkB interaction and MDGA2’s inhibitory effect on the tyrosine kinase B (TrkB) signaling. (A) Schematic depiction of the WT human MDGA2 and its V930I mutation constructs that are tagged with GFP. […]

[4] = tested on: cell membrane localization in HeLa cells and mouse primary neurons; experiment: Immunostaining of membrane localization of MDGA2, ΔMAM or V930I in transfected cells; assay type: cell-based; conditions: HeLa cells and mouse primary neurons, Fig 7B, 7C
Description: as §1

B1: brain-derived neurotrophic factor (protein)
chain: APMKEVNVHGQGNLAYPGVRTHGTLESVNGPRAGSRGLTTTSLADTFEHVIEELLDEDQKVRPNEENHKDADLYTSRVMLSSQVPLEPPLLFLLEEYKNYLDAANMSMRVRRHSDPARRGELSVCDSISEWVTAADKKTAVDMSGGTVTVLEKVPVSKGQLKQYFYETKCNPMGYTKEGCRGIDKRHWNSQCRTTQSYVRALTMDSKKRIGWRFIRIDTSCVCTLTIKRGR
For B1, the “Phosphorylation of TrkB induced by BDNF” value (TrkB [1]) is listed as “showed a dose-dependent manner and was much stronger in Mdga2^ +/− and Mdga2^−/− neurons than in WT neurons”, the “repetitive self-grooming behavior and anxiety-like behavior” value (ASD animal models; overexpression of BDNF, neonatally isolated rats) is listed as “rescued repetitive self-grooming behavior and anxiety-like behavior” and the social deficits (ASD animal models; valproic acid-exposed mice) is listed as “attenuated social deficits in valproic acid-exposed mice”.

B2: MDGA2-V930I: MDGA2 with ASD-associated missense mutation V930I, GFP-tagged (protein)
chain: PPTVRIVHSGLACNIEEERYSERVYTIREGETLELTCLVTGHPRPQIRWTKTAGSASDRFQDSSVFNETLRITNIQRHQGGRYYCKAENGLGSPAIKSIRVDVYYLDDPVVTVHQSIGEAKEQFYYERTVFLRCVANSNPPVRYSWRRGQEVLLQGSDKGVEIYEPFFTQGETKILKLKNLRPQDYANYSCIASVRNVCNIPDKMVSFRLSNKTASPSIKLLVDDPIVVNPGEAITLVCVTTGGEPAPSLTWVRSFGTLPEKTVLNGGTLTIPAITSDDAGTYSCIANNNVGNPAKKSTNIIVRALKKGRFWITPDPYHKDDNIQIGREVKISCQVEAVPSEELTFSWFKNGRPLRSSERMVITQTDPDVSPGTTNLDIIDLKFTDFGTYTCVASLKGGGISDISIDVNISSSTVPPNLTVPQEKSPLVTREGDTIELQCQVTGKPKPIILWSRADKEVAMPDGSMQMESYDGTLRIVNVSREMSGMYRCQTSQYNGFNVKPREALVQLIVQYPPAVEPAFLEIRQGQDRSVTMSCRVLRAYPIRVLTYEWRLGNKLLRTGQFDSQEYTEYAVKSLSNENYGVYNCSIINEAGAGRCSFLVTGKAYAPEFYYDTYNPVWQNRHRVYSYSLQWTQMNPDAVDRIVAYRLGIRQAGQQRWWEQEIKINGNIQKGELITYNLTELIKPEAYEVRLTPLTKFGEGDSTIRVIKYSAPVNPHLREFHCGFEDGNICLFTQDDTDNFDWTKQSTATRNTKYTPNTGPNADRSGSKEGFYMYIETSRPRLEGEKARLLSPVFSIAPKNPYGPTNTAYCFSFFYHMYGQHIGVLNVYLRLKGQTTIENPLWSSSGNKGQRWNEAHVNIYPITSFQLIFEGIRGPGIEGDIAIDDVSIAEGECAKQDLATKNSID
modifications: left off: GFP, end not stated, kept
notes: MDGA2 with ASD-associated missense mutation V930I, GFP-tagged
In the case of B2, the “interaction with TrkB (IP) vs WT MDGA2” value (TrkB [2]) is reported as “significantly decreased compared to that of WT MDGA2”, the “cell surface levels (biotinylation)” value (HeLa cells) is reported as “significantly lower than those of WT MDGA2” and the “aberrant activation of TrkB/Akt signaling upon re-expression” value [3] is reported as “did not inhibit the aberrant activation of the TrkB/Akt signaling as WT MDGA2 did”. The “cell surface distribution (immunostaining)” value [4] was “cell surface distribution was much less than that of WT MDGA2”.
